The values below come from patent publication US9670288B2, “Osteoprotegerin in neuroprotection” (Massachusetts Eye and Ear Infirmary, priority 2011, dated 2017).

Holding throughout (format): cell-based, mice
Test [1] relates to ERK kinase. The experiment in a line: H2O2 induced ERK kinase activation in cultured Schwann cells / SGCs (immunoblot, p-ERK). The following applies: opg −/− Schwann cells; pre-treatment 3 hours and co-treatment; OPG 100 ng/L, PD 98059 20 nM, zoledronate 10 μM; 500 μM H2O2. A general note: Immunoblotting shows a protein as a band on a membrane.
In test [2] the test system is spiral ganglion cells (SGCs) / Schwann cells. Kind of test: H2O2 induced oxidative cell death of cultured spiral ganglion cells (nuclear condensation, Hoechst 33342). Particulars: for H2O2 induced oxidative cell death: opg −/− SGCs/Schwann cells, pretreatment followed by co-treatment, OPG 100 ng/L, PD 98059 20 nM, zoledronate 10 μM, 500 μM H2O2.
In another test the test system is Schwann cells. The experiment in a line: TRAIL induced cell death (cleaved caspase 3) in cultured Schwann cells. The following applies: for TRAIL induced cleaved caspase 3 (cell death): opg −/− Schwann cells, pretreatment, TRAIL 100 ng/ml, OPG 100 ng/l, PD98059 20 nM, zoledronate 10 μM.
Test [3] deals with ERK kinase. Kind of test: TRAIL induced ERK phosphorylation in cultured Schwann cells (immunoblot). Particulars: for TRAIL induced ERK phosphorylation / ERK activation: opg −/− Schwann cells, pretreatment, TRAIL 100 ng/ml, OPG 100 ng/l, PD98059 20 nM, zoledronate 10 μM.
For test [4], the system named is opg −/− spheres. The experiment in a line: Proliferation of floating spiral ganglion spheres (BrdU staining). Particulars: third generation opg −/− spheres, Rankl 100 ng/ml, OPG 100 ng/ml, zoledronate 1 μM, 3 days, passaged. On the procedure: For each experiment, spiral ganglia of four to six 1-3 day old WT or opg −/− mice were dissected in HBSS. The SGCs (neurons and glia) were dissociated using trypsin (0.25%) for 13 min in PBS at 37° C. The enzymatic digestion was stopped by adding 10% FBS in DMEM-high glucose medium. The tissue was washed twice and gently triturated. The cell suspension was passed through a 70 μm cell strainer (BD Labware). Single cells were cultured in DMEM-high glucose and F12 (mixed 1:1) supplemented with N2 and B27 (Invitrogen), EGF (20 ng/mL; Chemicon), bFGF (10 ng/mL; Chemicon), IGF-1 (50 ng/mL; Chemicon), and heparan sulfate (50 ng/mL; Sigma). Newly formed spheres were cultured in ultra-low-cluster plates (Costar) for 4 days and were termed first generation spheres. Spheres were subsequently passaged every 4 days until the third generation, when 5-10 spheres were collected and dissociated (Oshima K, Grimm C M, Corrales C E, Senn P, Martinez Monedero R, Géléoc GS, Edge A, Holt J R, Heller S. 2007. J Assoc Res Otolaryngol. 2007; 8:18-31). Spheres were passaged at a clonal level for 3 more times. Before each passage, the sphere morphology was assessed and the spheres were counted using the Metamorph counting software. At the third generation, spiral ganglion spheres from WT and opg −/− mice were separated into 4 groups and treated with Rankl (100 ng/ml), OPG (100 ng/ml) or zoledronate (1 μM). […]
A general note: Incorporation of labelled thymidine or its analogues reports DNA synthesis.

In test [5] the test system is opg −/− spheres. Kind of test: Apoptosis in floating spiral ganglion spheres (cleaved caspase 3 staining). Particulars: third generation opg −/− spheres, Rankl 100 ng/ml, OPG 100 ng/ml, zoledronate 1 μM, 3 days, passaged. On the procedure: For each experiment, spiral ganglia of four to six 1-3 day old WT or opg −/− mice were dissected in HBSS. The SGCs (neurons and glia) were dissociated using trypsin (0.25%) for 13 min in PBS at 37° C. The enzymatic digestion was stopped by adding 10% FBS in DMEM-high glucose medium. The tissue was washed twice and gently triturated. The cell suspension was passed through a 70 μm cell strainer (BD Labware). Single cells were cultured in DMEM-high glucose and F12 (mixed 1:1) supplemented with N2 and B27 (Invitrogen), EGF (20 ng/mL; Chemicon), bFGF (10 ng/mL; Chemicon), IGF-1 (50 ng/mL; Chemicon), and heparan sulfate (50 ng/mL; Sigma). Newly formed spheres were cultured in ultra-low-cluster plates (Costar) for 4 days and were termed first generation spheres. Spheres were subsequently passaged every 4 days until the third generation, when 5-10 spheres were collected and dissociated (Oshima K, Grimm C M, Corrales C E, Senn P, Martinez Monedero R, Géléoc GS, Edge A, Holt J R, Heller S. 2007. J Assoc Res Otolaryngol. 2007; 8:18-31). Spheres were passaged at a clonal level for 3 more times. Before each passage, the sphere morphology was assessed and the spheres were counted using the Metamorph counting software. At the third generation, spiral ganglion spheres from WT and opg −/− mice were separated into 4 groups and treated with Rankl (100 ng/ml), OPG (100 ng/ml) or zoledronate (1 μM). The control group was untreated. After 3 days of treatment, the spheres were passaged and treated again for 3 days. Twelve hours before plating, proliferating cells in the spheres were labeled with BrdU (3 μg/ml). After 12 hours, the spheres were plated for 1 hour on poly-L-lysine (0.01%, Cultrex)-coated glass coverslips (Marienfeld GmbH, Germany), fixed in 4% paraformaldehyde for 10 min, treated with 1N HCl for antigen retrieval for BrdU staining, incubated for 1 hour in blocking solution (0.3% Triton, 15% goat serum in 1×PBS), and incubated overnight with either anti-cleaved caspase3 antibody to assess cell death, or anti-BrdU antibody to assess cell proliferation. After 3 washing steps with 1×PBS, the spheres were incubated in secondary antibody for 2 hours (568 Alexa Fluor anti rat or anti mouse). Nuclei were stained with DAPI. Staining was visualized by epifluorescence microscopy (Axioskop 2 Mot Axiocam, Zeiss). Counting was done with the Metamorph software.

Another test concerns p38, JNK or NF-κB p65. The experiment in a line: p38, JNK and NF-κB p65 activity after TRAIL in cultured Schwann cells (immunoblot). The following applies: opg −/− Schwann cells treated with TRAIL.

“Also recorded” adds a separate entry of the source.

Regarding `COc1cccc(-c2cc(=O)c3ccccc3o2)c1N` [PD 98059, reference compound], the “H2O2 induced ERK kinase activation” value in the test on ERK kinase [1] was “suppressed”. Also, in test [2], the “H2O2 induced oxidative cell death” value was “rescued”. Also, in the test on Schwann cells, the “TRAIL induced cleaved caspase 3 (cell death)” value is “suppressed”. The “TRAIL induced ERK phosphorylation / ERK activation” value with ERK kinase [3] is “suppressed”.

Consider `O=P(O)(O)C(O)(Cn1ccnc1)P(=O)(O)O` [zoledronate, reference compound], for which the “H2O2 induced ERK kinase activation” value with ERK kinase [1] was “suppressed”. For the same molecule, the “H2O2 induced oxidative cell death” value in test [2] is recorded as “rescued”. Moreover, the “TRAIL induced cleaved caspase 3 (cell death)” value in the test with Schwann cells is reported as “suppressed”. Besides, in the test with ERK kinase [3], the “TRAIL induced ERK phosphorylation / ERK activation” value was “suppressed”. Further, the “proliferation of opg−/− spheres (number of BrdU positive cells)” value in the test with opg −/− spheres [4] was “significantly enhanced; also recorded: increased”. For the same molecule, in the test with opg −/− spheres [5], the “apoptosis in opg−/− spheres (number of cleaved caspase 3 positive cells)” value (shortened to “apoptosis in opg−/− spheres”) was “reduced; also recorded: decreased”.

B1: TRAIL: TNF-related apoptosis-inducing ligand, recombinant (protein, UniProt P50591 1-281, looked up)
Tumor necrosis factor ligand …: MAMMEVQGGPSLGQTCVLIVIFTVLLQSLCVAVTYVYFTNELKQMQDKYSKSGIACFLKEDDSYWDPNDEESMNSPCWQVKWQLRQLVRKMILRTSEETISTVQEKQQNISPLVRERGPQRVAAHITGTRGRSNTLSSPNSKNEKALGRKINSWESSRSGHSFLSNLHLRNGELVIHEKGFYYIYSQTYFRFQEEIKENTKNDKQMVQYIYKYTSYPDPILLMKSARNSCWSKDAEYGLYSIYQGGIFELKENDRIFVSVTNEHLIDMDHEASFFGAFLVG
On to B1, for which, in the test on Schwann cells (Schwann cells treated with recombinant TRAIL (100 ng/ml)), the “cleavage of caspase 3 / cell death caused by TRAIL itself” value was “increased; also recorded: induced cell death”. In addition, the “ERK phosphorylation caused by TRAIL itself” value in the test with ERK kinase [3] (cells treated with TRAIL (100 ng/ml)) is “activated”. Besides, the “p38, JNK or NF-κB p65 activity after TRAIL” value with p38, JNK or NF-κB p65 is recorded as “did not affect”.

B2: OPG: Osteoprotegerin, cytokine receptor of the TNF receptor superfamily; recombinant protein from R & D Systems (protein)
chain: MNNLLCCALVFLDISIKWTTQETFPPKYLHYDEETSHQLLCDKCPPGTYLKQHCTAKWKTVCAPCPDHYYTDSWHTSDECLYCSPVCKELQYVKQECNRTHNRVCECKEGRYLEIEFCLKHRSCPPGFGVVQAGTPERNTVCKRCPDGFFSNETSSKAPCRKHTNCSVFGLLLTQKGNATHDNICSGNSESTQKCGIDVTLCEEAFFRFAVPTKFTPNWLSVLVDNLPGTKVNAESVERIKRQHSSQEQTFQLLKLWKHQNKDQDIVKKIIQDIDLCENSVQRHIGHANLTFEQLRSLMESLPGKKVGAEDIEKTIKACKPSDQILKLLSLWRIKNGDQDTLKGLMHALKHSKTYHFPKTVTQSLKKTIRFLHSFTMYKLYQKLFLEMIGNQVQSVKISCL
modifications: homo sapiens OPG
notes: Osteoprotegerin, cytokine receptor of the TNF receptor superfamily; recombinant protein from R & D Systems
As for B2, the “H2O2 induced ERK kinase activation” value in the test with ERK kinase [1] was “suppressed”. The “cell death without H2O2 treatment” value in test [2] (opg −/− SGCs, no H2O2) is recorded as “did not significantly affect”. Besides, in test [2], the “H2O2 induced oxidative cell death” value is on record as “rescued”. The “TRAIL induced cleaved caspase 3 (cell death)” value with Schwann cells is “suppressed”. Moreover, in the test on ERK kinase [3], the “TRAIL induced ERK phosphorylation / ERK activation” value was “suppressed”. The “proliferation of opg−/− spheres (number of BrdU positive cells)” value in the test with opg −/− spheres [4] is “significantly enhanced; also recorded: increased”. For the same molecule, the “apoptosis in opg−/− spheres” value in the test with opg −/− spheres [5] was “reduced; also recorded: decreased”.

B3: RANKL: RANK ligand, from R & D Systems (protein, UniProt O14788 140-317, looked up)
Tumor necrosis factor ligand …: IRAEKAMVDGSWLDLAKRSKLEAQPFAHLTINATDIPSGSHKVSLSSWYHDRGWAKISNMTFSNGKLIVNQDGFYYLYANICFRHHETSGDLATEYLQLMVYVTKTSIKIPSSHTLMKGGSTKYWSGNSEFHFYSINVGGFFKLRSGEEISIEVSNPSLLDPDQDATYFGAFKVRDID
With B3, the results for the “apoptosis in opg−/− spheres” value in the test on opg −/− spheres [5] and with opg −/− spheres [5] (listed as Rankl) were “significantly increased” and “increased”, respectively.
